Test results from patent US9340580B2, “Peptide with multiple epitopes” (priority 2007, dated 2016).
“And” between values parts separate entries of the source, which are not always exact repeats. Equal entries are not always repeated. Where two headings read alike, the source gives them in different places. Where a SMILES comes first, the peptide text is derived from it.

Columns and labels:
[1] = solubility pre-screen in an aqueous, acidic milieu; assay type: physicochemical
[2] = test system: human MHC class II allotypes; test: competitive MHC class II binding assay, statements over the panel; settings: peptides of reduced purity
Excerpt: (§1) This is a characteristic of promiscuous HLA-DRB1* binders.
This is of significance as purities were seen to vary from 60-90%. This would have a considerable effect on the ability of a peptide to compete if it is relatively impure. […] Therefore, if purity is taken into consideration, they may in fact have an equivalent affinity to a peptide of a higher purity.

[3] = precipitation in the aqueous solution of the binding assay; assay type: physicochemical; settings: aqueous solution of the MHC class II binding assay, read-out: Precipitation in assay: lowest concentration at which an insoluble white precipitate is seen
Excerpt: as §1

[4] = target: T1, human MHC class II allotype HLA-DRB1*1101 (human); test: competitive MHC class II binding assay; competitor control peptide influenza haemagglutinin 307-319;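 further: each test peptide was scored on how well it displaces the known control binder from each human MHC class II allotype studied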
T1 construct: Source and construct of the MHC protein in the assay are not described

[5] = target: T2, human MHC class II allotype HLA-DRB1*0401 (human); test: as above
T2 construct: Source and construct of the MHC protein in the assay are not described

[6] = target: T3, human MHC class II allotype HLA-DRB1*0101 (human); test: as above
T3 construct: Source and construct of the MHC protein in the assay are not described

[7] = target: T4, human MHC class II allotype HLA-DRB1*1501 (human); test: competitive MHC class II binding assay; competitor control peptide myelin basic protein 85-99
T4 construct: Source and construct of the MHC protein in the assay are not described

[8] = target: T5, human MHC class II allotype DQA1*0102/DQB1*0602 (human, UniProt P01920 33-230, limits assumed); test: competitive MHC class II binding assay; competitor control peptide human insulin B 1-15
T5 construct: Source and construct of the MHC protein in the assay are not described
T5 MHC II alpha: not shown
T5 MHC II beta: not shown

[9] = target: T6, human MHC class II allotype HLA-DRB1*0701 (human); test: competitive MHC class II binding assay; competitor control peptide influenza haemagglutinin 307-319;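 further: each test peptide was scored on how well it displaces the known control binder from each human MHC class II allotype studied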
T6 construct: Source and construct of the MHC protein in the assay are not described

[10] = target: T7, human MHC class II allotype HLA-DRB1*0301 (human); test: competitive MHC class II binding assay; competitor control peptide hsp 65 2-16
T7 construct: Source and construct of the MHC protein in the assay are not described

[11] = target: T8, human MHC class II allotype HLA-DRB1*0701 (human)
T8 chain 1: not shown
T8 chain 2: not shown

[12] = target: T9, human MHC class II allotype DQA1*0102/DQB1*0602 (human), P01920
T9 chain 1: not shown
T9 chain 2: not shown

[13] = target: T10, human MHC class II allotype HLA-DRB1*1501 (human)
T10 chain 1: not shown
T10 chain 2: not shown

[14] = target: T11, human MHC class II allotype HLA-DRB1*1101 (human)
T11 chain 1: not shown
T11 chain 2: not shown

[15] = target: T4, human MHC class II allotype …; test: competitive MHC class II binding assay, high stringency screen; competitor control peptide myelin basic protein 85-99
[16] = target: T12, human MHC class II allotype HLA-DRB1*1301 (human); test: competitive MHC class II binding assay; competitor control peptide HLA-DQB1*0603 21-36
T12 construct: Source and construct of the MHC protein in the assay are not described

**Q.** For “DGLEVDVPGIDPNACH (listed as Dermatophagoides pteronyssinus) [HDM23A]”, which Solubility test [1] is on record?
**A.** The Solubility test was “YES”.

**Q.** And the “binding affinity in the competition assay (in words)” value [2]?
**A.** Its value is “low affinity binding”.

**Q.** With `CC[C@H](C)[C@H](NC(=O)[C@H](C)NC(=O)[C@H](C)NC(=O)[C@@H](NC(=O)[C@H](C)NC(=O)[C@H](CCC(=O)O)NC(=O)[C@H](CC(=O)O)NC(=O)[C@@H](NC(=O)[C@H](C)NC(=O)[C@@H](N)CCCCN)C(C)C)C(C)C)C(=O)N[C@@H](CCC(=O)O)C(=O)N[C@@H](CCCCN)C(=O)N[C@@H](CO)C(=O)O` [HDM28] (H-KAVDEAVAAIEKS-OH) as the molecule, how does the Solubility test [1] read?
**A.** The Solubility test was “YES”.

**Q.** What about the solubility [3] of the same molecule?
**A.** The solubility was 1000 µM and 1300 µg/mL.

**Q.** For `CC(C)C[C@H](NC(=O)[C@H](CCC(N)=O)NC(=O)[C@H](Cc1ccccc1)NC(=O)[C@@H]1CCCN1C(=O)[C@@H](N)CCCCN)C(=O)N[C@@H](CCC(=O)O)C(=O)N[C@@H](C)C(=O)N[C@H](C(=O)N[C@@H](Cc1ccccc1)C(=O)N[C@@H](CCC(=O)O)C(=O)N[C@@H](C)C(=O)N[C@@H](CC(N)=O)C(=O)N[C@@H](CCC(N)=O)C(=O)N[C@@H](CC(N)=O)C(=O)N[C@H](C(=O)O)[C@@H](C)O)C(C)C` [HDM21] (H-KPFQLEAVFEANQNT-OH; N-terminus and C-terminus assumed), which Solubility test [1] is on record?
**A.** The Solubility test was “YES”.

**Q.** And the solubility [3]?
**A.** Its solubility is 200 µM and 300 µg/mL.

**Q.** With `CC[C@H](C)[C@H](N)C(=O)N[C@@H](CC(=O)O)C(=O)N[C@@H](CC(C)C)C(=O)N[C@@H](CCCCN)C(=O)NCC(=O)N[C@@H](CCC(=O)O)C(=O)N[C@@H](CC(C)C)C(=O)N[C@@H](CC(=O)O)C(=O)N[C@@H](CCSC)C(=O)N[C@@H](CCCNC(=N)N)C(=O)N[C@@H](CC(N)=O)C(=O)N[C@H](C(=O)N[C@@H](CCC(N)=O)C(=O)O)[C@@H](C)CC` [HDM32] (H-IDLKGELDMRNIQ-OH; N-terminus and C-terminus assumed) as the molecule, how does the Solubility test [1] read?
**A.** The Solubility test was “YES”.

**Q.** And the solubility [3]?
**A.** Its solubility is 5000 µM and 7700 µg/mL.

**Q.** For `CC[C@H](C)[C@H](N)C(=O)N[C@@H](CC(=O)O)C(=O)N[C@@H](CC(C)C)C(=O)N[C@@H](CCCCN)C(=O)NCC(=O)N[C@@H](CCC(=O)O)C(=O)N[C@@H](CC(C)C)C(=O)N[C@@H](CC(=O)O)C(=O)N[C@@H](CCSC)C(=O)N[C@@H](CCCNC(=N)N)C(=O)N[C@@H](CC(N)=O)C(=O)N[C@H](C(=O)N[C@@H](CCC(N)=O)C(=O)N[C@H](C(=O)N[C@@H](CCCNC(=N)N)C(=O)O)C(C)C)[C@@H](C)CC` [HDM32A] (H-IDLKGELDMRNIQVR-OH), which Solubility test [1] is on record?
**A.** Its Solubility test is “YES”.

**Q.** And the solubility [3]?
**A.** The solubility was 5000 µM and 9000 µg/mL.

**Q.** What does the source list for KPFQLEAVFEANQNT (Synthetic peptide, 88.7% purity) [HDM21]?
**A.** ratio of its own IC50 to that of the control peptide [4]: 11.7; ratio of its own IC50 to that of the control peptide [5]: 11.2; ratio of its own IC50 to that of the control peptide [6]: 92

**Q.** For DTVRAEMTKVLAP (Synthetic peptide, 69.5% purity) [HDM49], which “ratio of its own IC50 to that of the control peptide” value (shortened to “ratio of its own IC50”) [7] is on record?
**A.** The value was 671.

**Q.** What about the “ratio of its own IC50” value [8] of the same molecule?
**A.** The value was 1.7.

**Q.** For RGLKQMKRVGDAN (Synthetic peptide, 84.0% purity) [HDM35], which “ratio of its own IC50” value [4] is on record?
**A.** Its value is 1.26.

**Q.** For EAVFEANQNTKTAK (Synthetic peptide, 90.3% purity) [HDM22A], which “ratio of its own IC50” value [4] is on record?
**A.** The value was 80.

**Q.** What about the “ratio of its own IC50” value [5] of the same molecule?
**A.** The value was 329.

**Q.** Which “ratio of its own IC50” value [4] does the source give for KPFQLEAVFEANQNTK (Synthetic peptide, 90.1% purity) [HDM21A] here?
**A.** Its value is 10.3.

**Q.** What about the “ratio of its own IC50” value [5] of the same molecule?
**A.** The value was 52.2.

**Q.** What about the “ratio of its own IC50” value [6] of the same molecule?
**A.** The value was 200.

**Q.** With HDDVVSMEYDLAYKL (Synthetic peptide, 80.9% purity) [HDM39A] as the molecule, how does the “ratio of its own IC50” value [5] read?
**A.** Its value is 76.2.

**Q.** What about the “ratio of its own IC50” value [9] of the same molecule?
**A.** Its value is 0.71.

**Q.** And the “ratio of its own IC50” value [8]?
**A.** Its value is 0.1.

**Q.** For RTVTPIRMQGGCG (Synthetic peptide, 79.6% purity) [HDM02], which “ratio of its own IC50” value [7] is on record?
**A.** The value was 80.

**Q.** And the “ratio of its own IC50” value [8]?
**A.** Its value is 0.03.

**Q.** What does the source list for DGLEVDVPGIDPNACH (Synthetic peptide, 66.7% purity) [HDM23A]?
**A.** ratio of its own IC50 to that of the control peptide [10]: 347; ratio of its own IC50 to that of the control peptide [8]: 0.76

**Q.** Which “ratio of its own IC50” value [4] does the source give for VSMEYDLAYKLGDLH (Synthetic peptide, 66.9% purity) [HDM40A] here?
**A.** Its value is 6.

**Q.** What about the “ratio of its own IC50” value [9] of the same molecule?
**A.** Its value is 2.29.

**Q.** For RYVAREQSCRRPN (Synthetic peptide, 79.7% purity) [HDM06], which “ratio of its own IC50” value [4] is on record?
**A.** The value was 30.4.

**Q.** And the “ratio of its own IC50” value [8]?
**A.** Its value is 0.86.

**Q.** What does the source list for CIIHRGKPFQLEA (modifications not checked) [HDM20]?
**A.** ratio of its own IC50 to that of the control peptide [11]: 1.1; ratio of its own IC50 to that of the control peptide [12]: 2.37; ratio of its own IC50 to that of the control peptide [13]: 242; ratio of its own IC50 to that of the control peptide [14]: 28

**Q.** For REALAQTHSAIAVI (Synthetic peptide, 69.6% purity) [HDM09A], which “ratio of its own IC50” value [4] is on record?
**A.** Its value is 21.1.

**Q.** What about the “ratio of its own IC50” value [9] of the same molecule?
**A.** The value was 0.49.

**Q.** What about the “ratio of its own IC50” value [7] of the same molecule?
**A.** Its value is 200.

B1: Fel d 1 peptide EQVAQYKALPVVLENA (peptide)
peptide: EQVAQYKALPVVLENA
notes: Said to have been tested in an earlier study
**Q.** Which “ratio of its own IC50” value [15] does the source give for B1 here?
**A.** Its value is 0.97.

**Q.** For RNQSLDLAEQELVDCASQH (Synthetic peptide, 60.1% purity) [HDM03C], which “ratio of its own IC50” value [8] is on record?
**A.** Its value is 0.16.

**Q.** Which results are given for RNIQVRGLKQMKRVG (Synthetic peptide, 74.7% purity) [HDM34]?
**A.** ratio of its own IC50 to that of the control peptide [4]: 3.38; ratio of its own IC50 to that of the control peptide [7]: 769; ratio of its own IC50 to that of the control peptide [16]: 3.7

**Q.** For LDMRNIQVRGLKQ (Synthetic peptide, 70.3% purity) [HDM33], which “ratio of its own IC50” value [4] is on record?
**A.** The value was 41.5.

**Q.** And the “ratio of its own IC50” value [9]?
**A.** Its value is 46.5.

**Q.** What about the “ratio of its own IC50” value [16] of the same molecule?
**A.** Its value is 263.

**Q.** For TAIFQDTVRAEMTK (Synthetic peptide, 79.1% purity) [HDM48], which “ratio of its own IC50” value [4] is on record?
**A.** Its value is 13.6.

**Q.** What about the “ratio of its own IC50” value [9] of the same molecule?
**A.** The value was 15.7.

**Q.** And the “ratio of its own IC50” value [10]?
**A.** The value was 211.

**Q.** With DKFERHIGIIDLK (Synthetic peptide, 81.4% purity) [HDM30] as the molecule, how does the “ratio of its own IC50” value [9] read?
**A.** The value was 6.2.

**Q.** What does the source list for RGKPFQLEAVFEANQNT (Synthetic peptide, 82.6% purity) [HDM21B]?
**A.** ratio of its own IC50 to that of the control peptide [4]: 4.1; ratio of its own IC50 to that of the control peptide [5]: 0.78; ratio of its own IC50 to that of the control peptide [6]: 13.5

**Q.** With DGVLACAIATHAKIR (Synthetic peptide) [HDM26A] as the molecule, how does the “ratio of its own IC50” value [9] read?
**A.** The value was 16.3.

**Q.** And the “ratio of its own IC50” value [6]?
**A.** The value was 42.3.

**Q.** What about the “ratio of its own IC50” value [8] of the same molecule?
**A.** Its value is 0.61.

**Q.** With IDLRQMRTVTPIR (Synthetic peptide, 79.2% purity) [HDM01] as the molecule, how does the “ratio of its own IC50” value [9] read?
**A.** Its value is 16.

**Q.** What about the “ratio of its own IC50” value [10] of the same molecule?
**A.** Its value is 19.2.
